Data on eight molecules can be found in patent US20240270874A1 (JIANGSU HENGRUI PHARMACEUTICALS, published 2024).

First the molecules themselves.
B1: mAb18-hIgG1 (antibody, V domains shown)
VH: QVQLQQSGPELVRPGVSVKISCKGSGYTFTDYAMHWVKQTHAKSLEWIGVISTYSGTTNYNQNFKGKATVTVDKSSSTAYMELARLTSEDSAIYYCARSGPLDYWGQGTSLTVSS
VL: ENVLTQSPAIMSASPGEKVTMTCRASSSVSSSYLHWYQQKSGASPKLWIYSTSNLASGVPERFSGSGSGTSYSLTISSVEAEDAATYYCQQYSGYPLTFGSGTKLEIKR
notes: chimeric: murine mAb-18 variable regions on human IgG1 (L234A, L235A) / kappa constant regions; also called chimeric antibody of mAb18
B2: hAb18-16 (antibody, human IgG1, kappa, L234A L235A, V domains shown)
VH: EVQLVQSGAEVKKPGASVKVSCKASGYTFTDYAMHWVRQAPGQRLEWMGVISTYSGTTNYNQNFKGRVTITVDKSASTAYMELSSLRSEDTAVYYCARSGPLDYWGQGTTVTVSS
VL: ENVLTQSPDFQSVTPKEKVTITCRASSSVSTSYLHWYQQKPDQSPKLWIYSTSNLASGVPSRFSGSGSGTDYTLTINSLEAEDAATYYCQQYSGYPLTFGQGTKLEIKR
notes: humanized mAb-18: hAb18VH1 + hAb18VL2-10; human IgG1 (L234A, L235A) / kappa constant regions
B3: hAb18-17 (antibody, human IgG1, kappa, L234A L235A, V domains shown)
VH: EVQLVQSGAEVKKPGASVKVSCKASGYTFTDYAMHWVRQAPGQRLEWMGVISTYSGTTNYNQNFKGRVTITVDKSASTAYMELSSLRSEDTAVYYCARSGPLDYWGQGTTVTVSS
VL: ENVLTQSPDFQSVTPKEKVTITCRASSSVTSSYLHWYQQKPDQSPKLWIYSTSNLASGVPSRFSGSGSGTDYTLTINSLEAEDAATYYCQQYSGYPLTFGQGTKLEIKR
notes: humanized mAb-18: hAb18VH1 + hAb18VL2-11; human IgG1 (L234A, L235A) / kappa constant regions
B4: hAb18-19 (antibody, human IgG1, kappa, L234A L235A, V domains shown)
VH: EVQLVQSGAEVKKPGASVKVSCKASGYTFTDYAMHWVRQAPGQRLEWMGVISTYSGTTNYNQNFKGRVTITVDKSASTAYMELSSLRSEDTAVYYCARSGPLDYWGQGTTVTVSS
VL: ENVLTQSPDFQSVTPKEKVTITCRASSNVSSSYLHWYQQKPDQSPKLWIYSTSNLASGVPSRFSGSGSGTDYTLTINSLEAEDAATYYCQQYSGYPLTFGQGTKLEIKR
notes: humanized mAb-18: hAb18VH1 + hAb18VL2-13; human IgG1 (L234A, L235A) / kappa constant regions
B5: hAb18-18 (antibody, human IgG1, kappa, L234A L235A, V domains shown)
VH: EVQLVQSGAEVKKPGASVKVSCKASGYTFTDYAMHWVRQAPGQRLEWMGVISTYSGTTNYNQNFKGRVTITVDKSASTAYMELSSLRSEDTAVYYCARSGPLDYWGQGTTVTVSS
VL: ENVLTQSPDFQSVTPKEKVTITCRASSSLSSSYLHWYQQKPDQSPKLWIYSTSNLASGVPSRFSGSGSGTDYTLTINSLEAEDAATYYCQQYSGYPLTFGQGTKLEIKR
notes: humanized mAb-18: hAb18VH1 + hAb18VL2-12; human IgG1 (L234A, L235A) / kappa constant regions
B6: mAb99-hIgG1 (antibody, V domains shown)
VH: EVQLQQSGAELVRPGSSVKMSCKTSGYTFTNYGINWVKQRPRQGLEWIGYIYIGNGDIEYNAKFKGKATLTSDTSSSTAYMQLSSLTSEDSAIYFCARGRGLGHFDVWGTGTTVTVSS
VL: DVQITQSPSYLAASPGETITINCRASKSISKFLAWFQEKPGKTNKLLIYSGSTLQSGIPSRFSGSGSGTDFTLTISGLEPEDFAMYYCQQHNEYPWTFGGGTKLEIKR
notes: chimeric: murine mAb-99 variable regions on human IgG1 (L234A, L235A) / kappa constant regions; also called chimeric antibody of mAb99
B7: mAb-18 (antibody, V domains shown)
VH: QVQLQQSGPELVRPGVSVKISCKGSGYTFTDYAMHWVKQTHAKSLEWIGVISTYSGTTNYNQNFKGKATVTVDKSSSTAYMELARLTSEDSAIYYCARSGPLDYWGQGTSLTVSS
VL: ENVLTQSPAIMSASPGEKVTMTCRASSSVSSSYLHWYQQKSGASPKLWIYSTSNLASGVPERFSGSGSGTSYSLTISSVEAEDAATYYCQQYSGYPLTFGSGTKLEIK
notes: murine hybridoma antibody; also called murine antibody mAb-18
B8: mAb-99 (antibody, V domains shown)
VH: EVQLQQSGAELVRPGSSVKMSCKTSGYTFTNYGINWVKQRPRQGLEWIGYIYIGNGDIEYNAKFKGKATLTSDTSSSTAYMQLSSLTSEDSAIYFCARGRGLGHFDVWGTGTTVTVSS
VL: DVQITQSPSYLAASPGETITINCRASKSISKFLAWFQEKPGKTNKLLIYSGSTLQSGIPSRFSGSGSGTDFTLTISGLEPEDFAMYYCQQHNEYPWTFGGGTKLEIK
notes: murine hybridoma antibody; also called murine antibody mAb-99

T2 sequence (P11362 22-822): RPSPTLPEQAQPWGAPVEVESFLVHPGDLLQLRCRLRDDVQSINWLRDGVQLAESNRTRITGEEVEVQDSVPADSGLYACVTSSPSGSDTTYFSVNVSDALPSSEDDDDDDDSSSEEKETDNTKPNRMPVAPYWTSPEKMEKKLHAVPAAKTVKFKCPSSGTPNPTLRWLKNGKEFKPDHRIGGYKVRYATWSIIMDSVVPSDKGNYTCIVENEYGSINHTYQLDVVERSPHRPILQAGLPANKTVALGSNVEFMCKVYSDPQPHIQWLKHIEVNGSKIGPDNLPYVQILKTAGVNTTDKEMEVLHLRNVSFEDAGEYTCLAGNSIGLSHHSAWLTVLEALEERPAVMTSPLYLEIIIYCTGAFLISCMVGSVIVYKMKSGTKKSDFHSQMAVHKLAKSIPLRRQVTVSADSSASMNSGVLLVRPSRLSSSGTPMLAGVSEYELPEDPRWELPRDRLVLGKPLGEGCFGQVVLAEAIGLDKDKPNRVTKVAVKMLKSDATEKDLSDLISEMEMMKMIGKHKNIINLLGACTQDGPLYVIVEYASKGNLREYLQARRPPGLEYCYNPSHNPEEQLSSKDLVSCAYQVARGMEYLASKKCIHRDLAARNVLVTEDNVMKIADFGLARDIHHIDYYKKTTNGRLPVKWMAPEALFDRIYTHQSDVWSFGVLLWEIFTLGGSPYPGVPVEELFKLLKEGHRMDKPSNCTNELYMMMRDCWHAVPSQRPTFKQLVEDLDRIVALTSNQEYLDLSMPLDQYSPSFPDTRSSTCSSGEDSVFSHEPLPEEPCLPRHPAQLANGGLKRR

One assay deals with T1, human KLB on CHOK1-hKLB cells (human, UniProt Q86Z14 1-1044).
T1 construct: whole, on cells; also called human KLB antigen; β-Klotho
T1 sequence (looked up): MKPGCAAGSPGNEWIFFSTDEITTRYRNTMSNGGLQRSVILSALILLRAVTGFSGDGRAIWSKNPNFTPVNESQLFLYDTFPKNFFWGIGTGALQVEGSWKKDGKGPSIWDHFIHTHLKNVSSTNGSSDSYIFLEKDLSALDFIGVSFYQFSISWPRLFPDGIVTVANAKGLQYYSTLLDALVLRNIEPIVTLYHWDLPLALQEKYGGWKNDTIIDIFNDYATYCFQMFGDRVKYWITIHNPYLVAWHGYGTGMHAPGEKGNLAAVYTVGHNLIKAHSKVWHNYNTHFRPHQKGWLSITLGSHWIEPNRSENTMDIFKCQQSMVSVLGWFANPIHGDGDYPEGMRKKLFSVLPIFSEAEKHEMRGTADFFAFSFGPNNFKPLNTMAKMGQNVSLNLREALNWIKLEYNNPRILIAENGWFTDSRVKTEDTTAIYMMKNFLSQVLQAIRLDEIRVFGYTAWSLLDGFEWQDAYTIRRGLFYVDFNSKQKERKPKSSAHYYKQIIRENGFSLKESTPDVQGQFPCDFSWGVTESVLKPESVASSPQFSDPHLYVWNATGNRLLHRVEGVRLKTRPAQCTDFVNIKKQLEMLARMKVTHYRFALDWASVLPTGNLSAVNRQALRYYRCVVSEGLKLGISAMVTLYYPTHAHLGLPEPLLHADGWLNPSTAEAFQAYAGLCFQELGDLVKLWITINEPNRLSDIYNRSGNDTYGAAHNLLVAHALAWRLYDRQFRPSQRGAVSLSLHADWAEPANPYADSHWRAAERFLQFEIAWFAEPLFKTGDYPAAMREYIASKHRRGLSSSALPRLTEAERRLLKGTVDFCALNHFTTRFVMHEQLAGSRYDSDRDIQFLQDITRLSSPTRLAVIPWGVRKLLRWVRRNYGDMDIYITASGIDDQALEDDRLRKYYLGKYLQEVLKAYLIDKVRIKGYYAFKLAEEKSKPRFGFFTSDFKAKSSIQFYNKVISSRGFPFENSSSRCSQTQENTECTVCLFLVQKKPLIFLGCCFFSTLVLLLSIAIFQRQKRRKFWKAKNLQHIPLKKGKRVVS
The experiment in a line: flow cytometry on CHOK1-hKLB cells. From the text: The above heavy chain variable regions were fused to the heavy chain constant region (set forth in SEQ ID NO: 22) and the light chain variable regions were fused to the light chain constant region (set forth in SEQ ID NO: 23) to construct anti-KLB antibodies, and the binding activity of the obtained antibodies for CHOK1-hKLB was detected (see Test Example 2 of the present disclosure for the experimental method).
The binding ability of the antibodies for CHOK1 cell strains CHOK1-hKLB and CHOK1-cynoKLB overexpressing human KLB and monkey KLB (see Example 1 for specific preparation procedure), respectively, was detected by flow cytometry. The specific procedure was as follows: the above cells were cultured in 10% FBS-containing IMDM medium and incubated in an incubator at 37° C. and 5% CO₂ for 2 days. The cells were then added to a cell plate at 1×10⁵ cells per well, centrifuged at 300 g for 5 min, and then washed once with 1% BSA. The antibody diluted in gradient was added to the cell plate at 100 μL per well, and the mixture was incubated at 4° C. for 1 h and washed once with 1% BSA. The diluted (1:400) APC-goat anti-human IgG Fc fluorescent secondary antibody was added at 100 μL per well, and the resulting mixture was incubated at 4° C. for 1 h. The plate was washed three times with 1% BSA, PBS was added at 100 μL per well, and the plate was read.
Take B1: the EC50 was 2.16 nM. This counts as single-digit nanomolar.

B2 came in with an EC50 of 2.4 nM.

B3 showed a half-maximal effective concentration (EC50) of 1.8 nM.

The molecule B4 gave an EC50 of 4.1 nM.

Molecule B5 came in with a concentration giving a half-maximal response (EC50) of 1.7 nM.

B6 showed an EC50 of 0.97 nM.

A further assay has as its target T2, human FGFR1c on cells (human, UniProt P11362 22-822).
T2 construct: whole, on cells; also called hFGFR1c; CHOK1-hFGFR1c
The experiment in a line: hybridoma clone screening on recombinant cells.
For B7, the binding result is recorded as “no binding”.

In the case of B8, the binding result is “no binding”.
